To fix the notation:
B1: Azoarcus group I ribozyme (parent)
chain: GUGCCUUGCGCCGGGAAACCACGCAAGGGAUGGUGUCAAAUUCGGCGAAACCUAAGCGCCCGCCCGGGCGUAUGGCAACGCCGAGCCAAGCUUCGGCGCCUGCGCCGAUGAAGGUGUAGAGACUAGACGGCACCCACCUAAGGCAAACGCUAUGGUGAAGGCAUAGUCCAGGGAGUGGCGAAAGUCACACAAACCGG

The data set covers variants of B1. Put plainly: reverse-splicing fitness (ratio to wild type); higher = more active; in vitro selection; Mg2+ level not given. The method in brief:
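An in vitro group I ribozyme library with randomized positions was T7-transcribed and gel-purified. In triplicate, 10 pmol RNA in EPPS pH 7.5 was reacted with 50 pmoles of a 30-nt RNA substrate for 1 h at 37 °C across several added MgCl2 levels (1–48 mM), then stopped with EDTA. Products were reverse transcribed from a substrate-complementary primer, PCR-amplified and sequenced (HiSeq 4000). Fitness is a variant's read proportion after selection over that before, normalised to wild type.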
For C82G A111C A120C A145U C150U C169U U176A, the reverse-splicing fitness stood at 0.015. As for C82G A111C A120C A145U C150U C169G U176G, the reverse-splicing fitness is 0.0072. As to C82G A111C A120C A145U C150U C169G U176A, the reverse-splicing fitness was found to be 0.0133. As for C82G A111C A120C A145U C150U C169G U176C, the reverse-splicing fitness came to 0.0162. On to C82G A111C A120C C150G C169A U176A, for which the reverse-splicing fitness came to 0.00918. In the case of C82G A111C A120C C150G C169A U176G, the reverse-splicing fitness was found to be 0.00619. The figure for C82G A111C A120C C150G C169A U176C is 0.0137; for C82G A111C A120C C169G U176C it is 0.0206; for C82G A111C A120C C169G U176A it is 0.0161. On to C82G A111C A120C C169G U176G, for which the reverse-splicing fitness was 0.00714. As to C82G A111C A120C A145U C150U C169U, the reverse-splicing fitness turned out to be 0.0116. The figure for C82G A111C A120C A145U C150U C169G is 0.00788.

As for C82G A111C A120C A145U C150U C169A, the reverse-splicing fitness was 0.0102. On to C82G A111C A120C A145C C150A C169G U176C, for which the reverse-splicing fitness came to 0.0215. Turning to C82G A111C A120C A145C C150A C169G U176G, the reverse-splicing fitness worked out at 0.00758.

With C82G A111C A120C A145C C150A C169G U176A, the reverse-splicing fitness turned out to be 0.0271. C82G A111C A120C A145G C150A C169G: the reverse-splicing fitness came to 0.00768. As to C82G A111C A120C A145G C150A C169A, the reverse-splicing fitness came out at 0.0122.

For the variant C82G A111C A120C A145G C150A C169U, the reverse-splicing fitness is 0.0117.

C82G A111C A120C A145C C150A C169G: the reverse-splicing fitness was 0.00859. For the variant C82G A111C A120C A145C C150A C169A, the reverse-splicing fitness was 0.00796. With C82G A111C A120C A145C C150A C169U, the reverse-splicing fitness was 0.0113.

Turning to C82G A111C A120C A145U C150A U176C, the reverse-splicing fitness stood at 0.0153. On to C82G A111C A120C A145U C150A U176G, for which the reverse-splicing fitness stood at 0.00601. On to C82G A111C A120C A145U C150A U176A, for which the reverse-splicing fitness is 0.0102. As to C82G A111C A120C C150A C169G, the reverse-splicing fitness amounted to 0.00905.

Consider C82G A111C A120C C150A C169U, for which the reverse-splicing fitness worked out at 0.0123. The figure for C82G A111C A120C C150A C169A is 0.0108; for C82G A111C A120C A145G C169A U176C it is 0.0254. With C82G A111C A120C A145G C169A U176G, the reverse-splicing fitness came to 0.00796. As to C82G A111C A120C A145G C169A U176A, the reverse-splicing fitness was 0.0223.

Turning to C82A C169A U176A, the reverse-splicing fitness amounted to 0.015. The figure for C82A C169A U176C is 0.0166; for C82A C169A U176G it is 0.00441.

Take C82G A111C A120C A145G C169U U176C: the reverse-splicing fitness is 0.0158. As for C82G A111C A120C A145G C169U U176G, the reverse-splicing fitness was found to be 0.00614. With C82G A111C A120C A145G C169U U176A, the reverse-splicing fitness came out at 0.0139.

For C82G A111C A120G A145C C150A U176G, the reverse-splicing fitness worked out at 0.00463. C82G A111C A120G A145C C150A U176A: the reverse-splicing fitness is 0.0121.

Regarding C82G A111C A120G A145C C150A U176C, the reverse-splicing fitness is 0.011. C82G A111C A120G A145C C150G C169A U176C: the reverse-splicing fitness came to 0.00738. Take C82G A111C A120G A145C C150G C169A U176A: the reverse-splicing fitness came to 0.00812.

As for C82G A111C A120G A145C C150G C169A U176G, the reverse-splicing fitness was 0.005. Regarding C82G A111C A120C A145C C150U C169G U176G, the reverse-splicing fitness was 0.00745. For C82G A111C A120C A145C C150U C169G U176A, the reverse-splicing fitness came out at 0.0246. As to C82G A111C A120C A145C C150U C169G U176C, the reverse-splicing fitness was found to be 0.0168.

For C82G A111C A120C C150G U176A, the reverse-splicing fitness came out at 0.00574. Regarding C82G A111C A120C C150G U176C, the reverse-splicing fitness turned out to be 0.00847. As to C82G A111C A120C C150G U176G, the reverse-splicing fitness was 0.00427. On to C82G A111C A120G A145C C150A C169A U176C, for which the reverse-splicing fitness is 0.00779.

Turning to C82G A111C A120G A145C C150A C169A U176A, the reverse-splicing fitness was found to be 0.0124. Turning to C82G A111C A120G A145C C150A C169A U176G, the reverse-splicing fitness amounted to 0.00562. In the case of C82G A111C A120C A145G C150G C169A U176A, the reverse-splicing fitness was 0.0142. The same measure for C82G A111C A120C A145G C150G C169A U176C: 0.0127; for C82G A111C A120C A145G C150G C169A U176G: 0.0086; for C82G A111C A120C A145U C150A C169A U176C: 0.0129.

As to C82G A111C A120C A145U C150A C169A U176A, the reverse-splicing fitness came to 0.0163. C82G A111C A120C A145U C150A C169A U176G: the reverse-splicing fitness came out at 0.00868. The figure for C82G A111C A120C A145U C150U U176C is 0.02; for C82G A111C A120C A145U C150U U176A it is 0.0132; for C82G A111C A120C A145U C150U U176G it is 0.00688.

For C82G A111C A120C C150A C169G U176A, the reverse-splicing fitness amounted to 0.0183.

On to C82G A111C A120C C150A C169G U176G, for which the reverse-splicing fitness was found to be 0.00766. For C82G A111C A120C C150A C169G U176C, the reverse-splicing fitness was found to be 0.0225. Regarding C82G A111C A120C A145G C150A, the reverse-splicing fitness came to 0.0148.

With C82G A111C A120C A145G C150G, the reverse-splicing fitness turned out to be 0.0102.

Turning to C82G A111C A120C A145G C150U, the reverse-splicing fitness was found to be 0.0408.

Turning to C82G A111C A120C A145C, the reverse-splicing fitness is 0.0447. For C82G A111C A120C A145U, the reverse-splicing fitness came to 0.0547. In the case of C82G A111C A120C A145G, the reverse-splicing fitness was found to be 0.053.

As to C82G A111C A120C A145U U176G, the reverse-splicing fitness turned out to be 0.00884. On to C82G A111C A120C A145U U176A, for which the reverse-splicing fitness turned out to be 0.0196. The figure for C82G A111C A120C A145U U176C is 0.0239; for C82G A111C A120C A145G C150U C169A U176A it is 0.0153; for C82G A111C A120C A145G C150U C169A U176G it is 0.00796.

As to C82G A111C A120C A145G C150U C169A U176C, the reverse-splicing fitness was 0.0142.

For the variant C82G A111C A120C A145U C150A C169G U176G, the reverse-splicing fitness was found to be 0.00775. Regarding C82G A111C A120C A145U C150A C169G U176C, the reverse-splicing fitness worked out at 0.0169. For C82G A111C A120C A145U C150A C169G U176A, the reverse-splicing fitness turned out to be 0.0143. As for C82G A111C A120C C150U C169U U176C, the reverse-splicing fitness amounted to 0.0142. Regarding C82G A111C A120C C150U C169U U176G, the reverse-splicing fitness is 0.00857. As to C82G A111C A120C C150U C169U U176A, the reverse-splicing fitness came to 0.0158. With C82G A111C A120C A145U C150A, the reverse-splicing fitness stood at 0.011.

The record behind these values is the RNAGym collection of RNA variant scans (doi:10.1093/molbev/msab373).
